# Laboratory results from patent US20160347808A1 (IMMATICS BIOTECHNOLOGIES, published 2016).
# Target: T1, HLA-A*02:01 (peptide-receptive MHC class I monomer from UV-ligand exchange) (human)
# T1 construct: Monomers were captured on streptavidin-coated plates
# Assay: UV-exchange ELISA (anti-b2m); exchange yield grade: + >=10%, ++ >=20%, +++ >=50%, ++++ >=75%
# Source text: Candidate peptides for T cell based therapies according to the present invention were further tested for their MHC binding capacity (affinity). The individual peptide-MHC complexes were produced by UV-ligand exchange, where a UV-sensitive peptide is cleaved upon UV-irradiation, and exchanged with the peptide of interest as analyzed. Only peptide candidates that can effectively bind and stabilize the peptide-receptive MHC molecules prevent dissociation of the MHC complexes. To determine the yield of the exchange reaction, an ELISA was performed based on the detection of the light chain (β2m) of stabilized MHC complexes. The assay was performed as generally described in Rodenko et al. (Rodenko et al., 2006).
# 96 well MAXISorp plates (NUNC) were coated over night with 2 ug/ml streptavidin in PBS at room temperature, washed 4× and blocked for 1 h at 37° C. in 2% BSA containing blocking buffer. Refolded HLA-A*02:01/MLA-001 monomers served as standards, covering the range of 15-500 ng/ml. Peptide-MHC monomers of the UV-exchange reaction were diluted 100 fold in blocking buffer. Samples were incubated for 1 h at 37° C., washed four times, incubated with 2 ug/ml HRP conjugated anti-β2m for 1 h at 37° C., washed again and detected with TMB solution that is stopped with […]. Absorption was measured at 450 nm. Candidate peptides that show a high exchange yield (preferably higher than 50%, most preferred higher than 75%) are generally preferred for a generation and production of antibodies or fragments thereof, and/or T cell receptors or fragments thereof, as they show sufficient avidity to the MHC molecules and prevent dissociation of the MHC complexes.
row,Binder,peptide exchange yield [%]
1,KLDIKVETV [peptide KLDIKVETV (SEQ ID NO 88)],≥ 75
2,GLSEGHTFQV [peptide GLSEGHTFQV (SEQ ID NO 101)],50 to 75
3,NLLEKENYL [peptide NLLEKENYL (SEQ ID NO 57)],50 to 75
4,LTIEDGIFEV [peptide LTIEDGIFEV (SEQ ID NO 83)],50 to 75
5,YLFDIAVSM [peptide YLFDIAVSM (SEQ ID NO 73)],50 to 75
6,KSMDIVLTV [peptide KSMDIVLTV (SEQ ID NO 94)],50 to 75
7,GLLKPGLNVVL [peptide GLLKPGLNVVL (SEQ ID NO 90)],50 to 75
8,WIDDTSAFV [peptide WIDDTSAFV (SEQ ID NO 92)],50 to 75
9,ALLNGEYLLAA [peptide ALLNGEYLLAA (SEQ ID NO 54)],50 to 75
10,ILHDINSDGVL [peptide ILHDINSDGVL (SEQ ID NO 85)],20 to 50
11,KLLKLFQGV [peptide KLLKLFQGV (SEQ ID NO 61)],50 to 75
12,QVDEVVDIMRV [peptide QVDEVVDIMRV (SEQ ID NO 80)],20 to 50
13,SLAADQLLKL [peptide SLAADQLLKL (SEQ ID NO 79)],20 to 50
14,MISELEVRL [peptide MISELEVRL (SEQ ID NO 70)],50 to 75
15,SLIEYEFRV [peptide SLIEYEFRV (SEQ ID NO 89)],50 to 75
16,YLMGFLHAV [peptide YLMGFLHAV (SEQ ID NO 74)],50 to 75
17,SLDDFLATA [peptide SLDDFLATA (SEQ ID NO 100)],50 to 75
18,ILDDHLSRV [peptide ILDDHLSRV (SEQ ID NO 9)],20 to 50
19,SLLKRDFGA [peptide SLLKRDFGA (SEQ ID NO 77)],20 to 50
20,AMNGKSFSV [peptide AMNGKSFSV (SEQ ID NO 98)],20 to 50
21,TVDVATPSV [peptide TVDVATPSV (SEQ ID NO 91)],50 to 75
22,KILVSLIEV [peptide KILVSLIEV (SEQ ID NO 102)],50 to 75
23,KLFSILSTV [peptide KLFSILSTV (SEQ ID NO 63)],20 to 50
24,SMVEDITGLRL [peptide SMVEDITGLRL (SEQ ID NO 84)],50 to 75
25,SILQFVHMV [peptide SILQFVHMV (SEQ ID NO 68)],50 to 75
26,GLDDGPDFL [peptide GLDDGPDFL (SEQ ID NO 66)],20 to 50
27,QLYEEPDTKL [peptide QLYEEPDTKL (SEQ ID NO 82)],20 to 50

row,Binder,peptide exchange yield [%]
1,VLFTDEGVPKFL [peptide VLFTDEGVPKFL (SEQ ID NO 56)],20 to 50
2,FLLGSEIKL [peptide FLLGSEIKL (SEQ ID NO 53)],50 to 75
3,KVFPGKISV [peptide KVFPGKISV (SEQ ID NO 86)],20 to 50
4,YLTRHLAVL [peptide YLTRHLAVL (SEQ ID NO 7)],20 to 50
5,FLFGYPKRL [peptide FLFGYPKRL (SEQ ID NO 103)],20 to 50
6,ALDPELLLL [peptide ALDPELLLL (SEQ ID NO 78)],20 to 50
7,YLIGEKQHYL [peptide YLIGEKQHYL (SEQ ID NO 76)],50 to 75
8,ALWWGVVTV [peptide ALWWGVVTV (SEQ ID NO 97)],20 to 50
9,KTLGKLWRL [peptide KTLGKLWRL (SEQ ID NO 64)],20 to 50
10,LLFDAPDLRL [peptide LLFDAPDLRL (SEQ ID NO 87)],50 to 75
11,KLYSRLVYV [peptide KLYSRLVYV (SEQ ID NO 96)],20 to 50
12,EMIENIQSV [peptide EMIENIQSV (SEQ ID NO 75)],20 to 50
13,LLTDNVVKL [peptide LLTDNVVKL (SEQ ID NO 59)],50 to 75
14,YLLDYPNNLL [peptide YLLDYPNNLL (SEQ ID NO 72)],50 to 75
15,VLDEDEPRFL [peptide VLDEDEPRFL (SEQ ID NO 60)],20 to 50
16,RLWTEIPTAI [peptide RLWTEIPTAI (SEQ ID NO 71)],50 to 75
17,ALLSQQTHL [peptide ALLSQQTHL (SEQ ID NO 81)],50 to 75
18,SLQELRLLL [peptide SLQELRLLL (SEQ ID NO 93)],≥ 75
19,ALMLQGVDLL [peptide ALMLQGVDLL (SEQ ID NO 8)],50 to 75
20,KLLEVDLDTV [peptide KLLEVDLDTV (SEQ ID NO 99)],50 to 75
21,YLAPENGYL [peptide YLAPENGYL (SEQ ID NO 62)],20 to 50
22,SLNDLEKDVMLL [peptide SLNDLEKDVMLL (SEQ ID NO 67)],50 to 75
23,AMADKMDMSL [peptide AMADKMDMSL (SEQ ID NO 58)],20 to 50
24,FLAELPGSLSL [peptide FLAELPGSLSL (SEQ ID NO 6)],50 to 75
25,AILDAHIEV [peptide AILDAHIEV (SEQ ID NO 95)],≥ 75
26,GMLNEAEGKAIKL [peptide GMLNEAEGKAIKL (SEQ ID NO 69)],20 to 50
